These results are taken from publication PMC4533773 (International Journal of Molecular Medicine, 2015).

This assay has as its target T1, AIM (analyte of the BLI experiment) (UniProt Q9QWK4 22-352).
T1 sequence (looked up): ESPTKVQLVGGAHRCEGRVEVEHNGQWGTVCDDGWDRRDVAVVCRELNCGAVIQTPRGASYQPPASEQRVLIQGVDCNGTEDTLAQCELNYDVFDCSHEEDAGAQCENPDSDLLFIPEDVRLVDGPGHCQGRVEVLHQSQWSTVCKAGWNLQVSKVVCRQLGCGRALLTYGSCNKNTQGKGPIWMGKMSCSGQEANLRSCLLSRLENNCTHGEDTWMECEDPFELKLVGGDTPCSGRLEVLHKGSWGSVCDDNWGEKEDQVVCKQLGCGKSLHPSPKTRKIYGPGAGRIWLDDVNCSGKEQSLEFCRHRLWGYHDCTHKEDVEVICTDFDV
Kind of assay: BLI.

B1: Biotinylated IGFBP-4 (natural protein, UniProt P47879 22-254, looked up)
chain: DEAIHCPPCSEEKLARCRPPVGCEELVREPGCGCCATCALGLGMPCGVYTPRCGSGMRCYPPRGVEKPLRTLMHGQGVCTELSEIEAIQESLQTSDKDESEHPNNSFNPCSAHDHRCLQKHMAKIRDRSKMKIVGTPREEPRPVPQGSCQSELHRALERLAASQSRTHEDLFIIPIPNCDRNGNFHPKQCHPALDGQRGKCWCVDRKTGVKLPGGLEPKGELDCHQLADSFQE
modifications: biotin (labelled after purification; sites not stated)
Consider B1, for which binding was characterised by a dissociation constant (Kd) of 0.0253 µM, the koff (usually the first-order rate constant of dissociation) was found to be 0.000999 s⁻¹ and the kon (commonly the second-order rate constant of association) worked out at 39600 M⁻¹ s⁻¹.
